Test results taken from PMC3074572 (2011).

Molecular target: TGFβ1 (Homo sapiens, UniProt P01137)
Sequence (P01137 279-390): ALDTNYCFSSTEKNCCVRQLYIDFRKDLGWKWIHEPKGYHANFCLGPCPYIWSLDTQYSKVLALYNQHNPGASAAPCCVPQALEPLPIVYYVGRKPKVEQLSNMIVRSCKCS

## KRIWFIPRSSWY [KRIWFIPRSSWY peptide]
  Kd: 10.4 nM
